Data reported in patent US7067474B1, “Agents for treating human illnesses based on β-catenin, and the production and use thereof” (Max-Delbruck-Centrum fur Molekulare Medizin, priority 1998, dated 2006).

Experiments:
Assay in all cases: yeast 2-hybrid; - means 60-100% of the wild type interaction
[1] = target: T1, human β-catenin (Leu218-Leu781) mutant Phe 253 to alanine, Gal-4 activation domain fusion (human, UniProt P35222 218-781)
T1 sequence: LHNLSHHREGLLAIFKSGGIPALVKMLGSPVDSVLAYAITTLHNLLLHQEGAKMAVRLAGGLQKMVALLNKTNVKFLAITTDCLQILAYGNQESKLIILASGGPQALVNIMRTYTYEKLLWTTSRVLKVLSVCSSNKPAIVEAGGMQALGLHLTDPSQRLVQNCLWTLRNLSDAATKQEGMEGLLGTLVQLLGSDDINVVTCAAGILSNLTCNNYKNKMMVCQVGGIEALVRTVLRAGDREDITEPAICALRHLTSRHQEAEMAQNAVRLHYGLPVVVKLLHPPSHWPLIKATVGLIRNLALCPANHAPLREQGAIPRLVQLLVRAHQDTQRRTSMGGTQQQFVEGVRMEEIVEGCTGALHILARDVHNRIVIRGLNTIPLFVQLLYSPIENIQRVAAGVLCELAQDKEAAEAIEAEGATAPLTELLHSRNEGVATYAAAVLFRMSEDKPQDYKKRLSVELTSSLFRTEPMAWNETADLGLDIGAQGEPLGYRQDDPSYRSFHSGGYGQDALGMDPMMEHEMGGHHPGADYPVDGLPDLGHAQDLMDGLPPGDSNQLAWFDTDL
Method: (§1) 4. Preparation and testing of mutants of β-catenin modulating the interaction with LEF-1, APC, conductin or E-cadherin The mutagenesis of β-catenin in the armadillo repeats 3–8 was carried out by means of the "mutagenesis kit" of the company Clontech according to the producer's record and the mutants were checked by sequencing (FIG. 5). In all mutants the original amino acid was substituted by alanine. For analyzing the interactions the cDNA of human β-catenin (armadillo repeat 3 up to the C-terminal end of the protein) coding for the amino acids Leu218–Leu7 µl or its mutants was cloned into the fusion vector for the activation domain of Gal-4 (pGAD424, Clontech). The cDNA for the binding domains of the interaction partners was cloned into the Lex-A fusion vector BTM 116. To this end, the cDNA of LEF-1 for the amino acids 1–99, conductin for the amino acids Ala342–ARG465; of human APC for the amino acids His1012–Glu1215 (APC 15 amino acid repeats) and for the amino acids Ser1259Asp 1400 (APC 20 amino acid repeats) and E-cadherin for the amino acids Gin773–Asp884 (cytoplasmatic domain) were amplified with the respective primers PCR. The interaction of the Lex-A hybrids with β-catenin and its mutants was quantified by means of the β-galactosidase reporter activity in the yeast 2-hybrid system (report: "Matchmaker". Clontech) (Tab. 2 and FIG. 6).

[2] = target: T2, human β-catenin (Leu218-Leu781) mutant Trp 338 to alanine, Gal-4 activation domain fusion (human, UniProt P35222 218-781)
T2 sequence: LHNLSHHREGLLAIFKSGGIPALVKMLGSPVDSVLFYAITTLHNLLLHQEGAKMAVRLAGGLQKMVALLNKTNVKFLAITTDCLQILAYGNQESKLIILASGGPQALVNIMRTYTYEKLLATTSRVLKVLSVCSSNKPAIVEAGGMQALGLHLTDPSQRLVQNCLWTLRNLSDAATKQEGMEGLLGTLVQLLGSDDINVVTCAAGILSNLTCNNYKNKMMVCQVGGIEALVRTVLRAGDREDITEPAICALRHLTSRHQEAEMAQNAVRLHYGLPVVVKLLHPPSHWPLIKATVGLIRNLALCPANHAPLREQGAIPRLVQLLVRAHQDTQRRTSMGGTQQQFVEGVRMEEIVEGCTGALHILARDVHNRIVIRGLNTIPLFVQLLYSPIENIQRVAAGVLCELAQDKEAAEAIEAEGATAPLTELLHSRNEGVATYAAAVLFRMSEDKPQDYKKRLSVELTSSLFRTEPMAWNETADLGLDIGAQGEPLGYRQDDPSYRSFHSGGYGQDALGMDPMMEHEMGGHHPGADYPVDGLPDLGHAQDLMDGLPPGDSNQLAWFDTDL
Method: as §1

[3] = target: T3, human β-catenin (Leu218-Leu781) mutant Trp 383 to alanine, Gal-4 activation domain fusion (human, UniProt P35222 218-781)
T3 sequence: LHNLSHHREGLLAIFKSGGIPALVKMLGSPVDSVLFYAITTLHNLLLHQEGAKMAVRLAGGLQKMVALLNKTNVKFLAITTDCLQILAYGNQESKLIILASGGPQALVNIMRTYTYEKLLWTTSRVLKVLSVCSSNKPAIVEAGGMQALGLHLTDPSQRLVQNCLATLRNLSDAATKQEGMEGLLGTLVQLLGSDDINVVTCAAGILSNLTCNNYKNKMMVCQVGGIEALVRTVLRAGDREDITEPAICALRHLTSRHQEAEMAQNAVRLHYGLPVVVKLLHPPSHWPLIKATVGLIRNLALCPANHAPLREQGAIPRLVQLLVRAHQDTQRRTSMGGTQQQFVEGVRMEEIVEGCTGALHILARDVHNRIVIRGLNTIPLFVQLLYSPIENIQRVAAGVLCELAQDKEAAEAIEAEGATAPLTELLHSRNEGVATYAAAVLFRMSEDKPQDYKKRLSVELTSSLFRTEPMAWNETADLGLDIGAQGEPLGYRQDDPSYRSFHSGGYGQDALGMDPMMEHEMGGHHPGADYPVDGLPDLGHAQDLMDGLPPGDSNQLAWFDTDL
Method: as §1

Measured: binding result

B1: LEF-1 amino acids 1-99 fused to Lex-A (vector BTM 116) (other, UniProt P0A7C2 1-202, looked up)
chain: MKALTARQQEVFDLIRDHISQTGMPPTRAEIAQRLGFRSPNAAEEHLKALARKGVIEIVSGASRGIRLLQEEEEGLPLVGRVAAGEPLLAQQHIEGHYQVDPSLFKPNADFLLRVSGMSMKDIGIMDGDLLAVHKTQDVRNGQVVVARIDDEVTVKRLKKQGNKVELLPENSEFKPIVVDLRQQSFTIEGLAVGVIRNGDWLMPQLSGGGGGGDPELCATDEMIPFKDEGDPQKEKIFAEISHPEEEGDLADIKSSLVNESEIIPASNGHEVVRQAPSSQEPYHDKAREHPDEGKHPDGGL
notes: Order of the fusion follows the vector; also called LEF-1/TCF-4
binds: all assays above
